B1: Phosphopantetheine adenylyltransferase from B. pseudomallei strain 1710b, tag removed (GPGS-ORF) (enzyme)
chain: MVVAVYPGTFDPLTRGHEDLVRRASSIFDTLVVGVADSRAKKPFFSLEERLKIANEVLGHYPNVKVMGFTGLLKDFVRANDARVIVRGLRAVSDFEYEFQMAGMNRYLLPDVETMFMTPSDQYQFISGTIVREIAQLGGDVSKFVFPSVEKWLTEKVAAMAQGPSA
notes: also called Bp PPAT; PPAT
B2: Phosphopantetheine adenylyltransferase from B. pseudomallei strain 1710b, with the full-length expression tag (…-ORF) (enzyme)
chain: B1 chain
notes: also called Bp PPAT; PPAT

Target: the molecule itself
Test: crystal structure

| Protein | stoichiometry N |
| --- | --- |
| B1 | 6 |
| B2 | 6 |

Source: article PMC3169398, “Structures of phosphopantetheine adenylyltransferase from Burkholderia pseudomallei” (Acta Crystallographica Section F: Structural Biology and …, 2011)
